The supplement of paper PMC11246515
± gives the standard deviation of the averaged measurements.

Test: total protein half-life in vivo (active degradation + dilution); higher = more stable protein
[1] = E. coli NCM3722 delta-lon, growth: N-lim chemostat, doubling time 6 h
[2] = wild type E. coli NCM3722, growth: C-lim chemostat, doubling time 3 h
[3] = wild type E. coli NCM3722, growth: C-lim chemostat, doubling time 6 h
[4] = wild type E. coli NCM3722, growth: C-lim chemostat, doubling time 12 h
[5] = wild type E. coli NCM3722, growth: N-lim chemostat, doubling time 12 h
[6] = E. coli NCM3722 delta-clpP, growth: N-lim chemostat, doubling time 6 h
[7] = E. coli NCM3722 delta-hslV, growth: N-lim chemostat, doubling time 6 h
[8] = E. coli NCM3722 delta-smpB, growth: N-lim chemostat, doubling time 6 h
[9] = wild type E. coli NCM3722, growth: P-lim chemostat, doubling time 6 h
[10] = wild type E. coli NCM3722, growth: P-lim chemostat, doubling time 12 h
[11] = E. coli NCM3722 delta-clpP delta-lon delta-hslV, growth: N-lim chemostat, doubling time 6 h
[12] = wild type E. coli NCM3722, growth: N-lim chemostat, doubling time 6 h

Sequence | total protein half-life in vivo [1] [h] | total protein half-life in vivo [2] [h] | total protein half-life in vivo [3] [h] | total protein half-life in vivo [4] [h] | total protein half-life in vivo [5] [h] | total protein half-life in vivo [6] [h] | total protein half-life in vivo [7] [h] | total protein half-life in vivo [8] [h] | total protein half-life in vivo [9] [h] | total protein half-life in vivo [10] [h] | total protein half-life in vivo [11] [h] | total protein half-life in vivo [12] [h]
MSRIEAVFFDCDGTLVDSEVICSRAYVTMFQEFGITLDPEEVFKRFKGVKLYEIIDIVSLEHGVTLAKTEAEHVYRAEVARLFDSELEAIEGAGALLSAITAPMCVVSNGPNNKMQHSMGKLNMLHYFPDKLFSGYDIQRWKPDPALMFHAAKAMNVNVENCILVDDSVAGAQSGIDAGMEVFYFCADPHNKPIVHPKVTTFTHLSQLPELWKARGWDITA | 2.73 | 2.09 | 4.76 | 9.19 | 2.64 |  |  |  |  |  |  | 
MSRKQLALFEPTLVVQALKEAVKKLNPQAQWRNPVMFIVWIGSLLTTCISIAMASGAMPGNALFSAAISGWLWITVLFANFAEALAEGRSKAQANSLKGVKKTAFARKLREPKYGAAADKVPADQLRKGDIVLVEAGDIIPCDGEVIEGGASVDESAITGESAPVIRESGGDFASVTGGTRILSDWLVIECSVNPGETFLDRMIAMVEGAQRRKTPNEIALTILLIALTIVFLLATATLWPFSAWGGNAVSVTVLVALLVCLIPTTIGGLLSAIGVAGMSRMLGANVIATSGRAVEAAGDVDVLLLDKTGTITLGNRQASEFIPAQGVDEKTLADAAQLASLADETPEGRSIVILAKQRFNLRERDVQSLHATFVPFTAQSRMSGINIDNRMIRKGSVDAIRRHVEANGGHFPTDVDQKVDQVARQGATPLVVVEGSRVLGVIALKDIVKGGIKERFAQLRKMGIKTVMITGDNRLTAAAIAAEAGVDDFLAEATPEAKLALIRQYQAEGRLVAMTGDGTNDAPALAQADVAVAMNSGTQAAKEAGNMVDLDSNPTKLIEVVHIGKQMLMTRGSLTTFSIANDVAKYFAIIPAAFAATYPQLNALNIMCLHSPDSAILSAVIFNALIIVFLIPLALKGVSYKPLTASAMLRRNLWIYGLGGLLVPFIGIKVIDLLLTVCGLV | 6.41 | 2.79 |  | 11.5 | 7.13 ± 1.7 | 5.05 | 5.02 | 3.79 | 7.01 ± 1.2 | 10.4 ± 0.27 |  | 
MSRLSPVNQARWARFRHNRRGYWSLWIFLVLFGLSLCSELIANDKPLLVRYDGSWYFPLLKNYSESDFGGPLASQADYQDPWLKQRLENNGWVLWAPIRFGATSINFATNKPFPSPPSRQNWLGTDANGGDVLARILYGTRISVLFGLMLTLCSSVMGVLAGALQGYYGGKVDLWGQRFIEVWSGMPTLFLIILLSSVVQPNFWWLLAITVLFGWMSLVGVVRAEFLRTRNFDYIRAAQALGVSDRSIILRHMLPNAMVATLTFLPFILCSSITTLTSLDFLGFGLPLGSPSLGELLLQGKNNLQAPWLGITAFLSVAILLSLLIFIGEAVRDAFDPNKAV |  |  |  |  |  | 6.1 |  | 5.43 ± 0.61 |  | 13.2 | 6 | 6.44
MSRPRRRGRDINGVLLLDKPQGMSSNDALQKVKRIYNANRAGHTGALDPLATGMLPICLGEATKFSQYLLDSDKRYRVIARLGQRTDTSDADGQIVEERPVTFSAEQLAAALDTFRGDIEQIPSMYSALKYQGKKLYEYARQGIEVPREARPITVYELLFIRHEGNELELEIHCSKGTYIRTIIDDLGEKLGCGAHVIYLRRLAVSKYPVERMVTLEHLRELVEQAEQQDIPAAELLDPLLMPMDSPASDYPVVNLPLTSSVYFKNGNPVRTSGAPLEGLVRVTEGENGKFIGMGEIDDEGRVAPRRLVVEYPA | 4.83 ± 0.34 | 3.06 ± 0.59 | 5.2 ± 0.55 | 9.72 ± 0.41 | 7.6476 ± 0.0051 | 4.93 ± 0.41 | 4.51 ± 0.27 | 4.29 ± 0.17 | 5.59 ± 0.17 | 12.2 ± 2.5 | 5.81 ± 0.72 | 4.89 ± 0.18
MSRRVATITLNPAYDLVGFCPEIERGEVNLVKTTGLHAAGKGINVAKVLKDLGIDVTVGGFLGKDNQDGFQQLFSELGIANRFQVVQGRTRINVKLTEKDGEVTDFNFSGFEVTPADWERFVTDSLSWLGQFDMVCVSGSLPSGVSPEAFTDWMTRLRSQCPCIIFDSSREALVAGLKAAPWLVKPNRRELEIWAGRKLPEMKDVIEAAHALREQGIAHVVISLGAEGALWVNASGEWIAKPPSVDVVSTVGAGDSMVGGLIYGLLMRESSEHTLRLATAVAALAVSQSNVGITDRPQLAAMMARVDLQPFN [P0AEW9] | 5.57 ± 1.3 | 3.11 ± 0.06 | 7.05 ± 0.084 | 12.2 ± 0.77 | 10.74 ± 0.098 | 6.29 ± 0.82 | 6.11 ± 0.88 | 5.34 ± 0.068 | 6.22 ± 0.24 | 13.5 ± 2.4 | 5.41 ± 0.1 | 5.61 ± 0.2
MSRSLLTNETSELDLLDQRPFDQTDFDILKSYEAVVDGLAMLIGSHCEIVLHSLQDLKCSAIRIANGEHTGRKIGSPITDLALRMLHDMTGADSSVSKCYFTRAKSGVLMKSLTIAIRNREQRVIGLLCINMNLDVPFSQIMSTFVPPETPDVGSSVNFASSVEDLVTQTLEFTIEEVNADRNVSNNAKNRQIVLNLYEKGIFDIKDAINQVADRLNISKHTVYLYIRQFKSGDFQGQDK | 3.21 ± 0.28 | 2.482 ± 0.004 | 4.69 ± 1.3 | 6.93 ± 0.81 | 4.95 ± 1.1 | 4.65 ± 0.54 | 3.52 ± 0.076 | 3.38 ± 0.41 | 3.94 ± 0.15 | 6.94 ± 0.43 | 6.19 ± 0.97 | 3.36 ± 0.46
MSRSQNLRHNVINQVIDDMARGHIPSPLPSQSALAEMYNISRTTVRHILSHLRECGVLTQVGNDYVIARKPDHDDGFACTTASMSEQNKVFEQAFFTMINQRQLRPGETFSELQLARAAGVSPVVVREYLLKFGRYNLIHSEKRGQWSMKQFDQSYAEQLFELREMLETHSLQHFLNLPDHDPRWLQAKTMLERHRLLRDNIGNSFRMFSQLDRDFHSLLLSAADNIFFDQSLEIISVIFHFHYQWDESDLKQRNIIAVDEHMTILSALICRSDLDATLALRNHLNSAKQSMIRSINENTRYAH |  | 0.713 | 1.15 |  |  |  |  |  |  |  |  | 
MSRTIFCTFLQREAEGQDFQLYPGELGKRIYNEISKEAWAQWQHKQTMLINEKKLNMMNAEHRKLLEQEMVNFLFEGKEVHIEGYTPEDKK [P0A8P3] | 5.01 ± 0.2 | 3.07 ± 0.31 | 5.14 ± 0.14 | 8.58 ± 1.5 | 6.39 ± 0.51 | 4.957 ± 0.0071 | 4.94 ± 1.4 | 3.99 ± 0.37 | 5.7 | 9.27 ± 1.4 | 6.2 ± 0.24 | 3.63 ± 0.074
